Assays:
[1] = biological target: T1, recombinant human CD3ε-ECD His protein (human, UniProt P07766 23-126); experiment: SPR (Biacore), antibody captured on Protein A chip
T1 construct: extracellular domain; also called human CD3ε-His; CD3ε antigen protein; not shown: His tag
Description: Sample buffer and running buffer were HBS-EP+(10 mM HEPES, 150 mM NaCl, 3 mM EDTA, 0.05% surfactant P20) (GE Healthcare; BR-1006-69). The flow-through cell was set to 25° C. The sample block was set to 16° C. Both were pretreated with the running buffer. In each cycle, the antibody to be detected was first captured with a Protein A chip, and then a single concentration of CD3ε antigen protein (purchased from Sino Biological, Inc. (China), catalog number: 10977-H08H) was injected. The binding and dissociation processes of the antibody and the antigen protein were recorded, and finally a glycine solution (pH 1.5, GE Healthcare; BR-1003-54) was used to complete chip regeneration. The binding was measured by injecting different concentrations of recombinant human CD3ε-ECD His proteins in a solution for 240 s with a flow rate of 30 μL/min. The concentration started from 200 nM (see the detailed results for the actual concentration in the test) and was diluted at 1:1, making a total of 5 concentrations. The dissociation phase was monitored for up to 600 s and was triggered by switching from sample solution to running buffer. The surface was regenerated by washing with a 10 mM glycine solution (pH 1.5) for 30 s at a flow rate of 30 μL/min. Bulk refractive index difference was corrected by subtracting the response obtained from the goat anti-human Fc surface. Blank injection was also subtracted (=double reference). For calculation of apparent KD and other kinetic parameters, Langmuir 1:1 model was used.

[2] = biological target: T2, cynomolgus monkey CD3 on the surface of expanded monkey T cells (cynomolgus monkey, UniProt Q95LI5 22-198; Q95LI8 22-171; Q95LI7 23-181); experiment: FACS, expanded monkey T cells
T2 construct: whole, on cells; Endogenous CD3 within the TCR-CD3 complex on T cells expanded from cynomolgus monkey PBMC
T2 sequence (Q95LI8 22-171, chain 2 of 2): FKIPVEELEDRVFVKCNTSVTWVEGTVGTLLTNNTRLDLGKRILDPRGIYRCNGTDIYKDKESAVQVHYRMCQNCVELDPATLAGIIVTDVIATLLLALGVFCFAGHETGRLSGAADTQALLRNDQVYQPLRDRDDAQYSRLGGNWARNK
T2 sequence (Q95LI7 23-181, chain 3 of 2): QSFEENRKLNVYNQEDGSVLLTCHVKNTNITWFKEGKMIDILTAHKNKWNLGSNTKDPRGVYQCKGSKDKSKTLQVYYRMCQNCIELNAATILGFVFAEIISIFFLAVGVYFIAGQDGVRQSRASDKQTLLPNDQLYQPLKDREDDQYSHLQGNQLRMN
Description: (§1) The binding of the chimeric antibodies to CD3 on the cell surface was analyzed by detecting the binding of the antibodies to Jurkat cells and human T cells. Suspension cells Jurkat cells were scale-up cultured in T-75 cell culture flasks to the logarithmic growth phase, the supernatant of the medium was discarded by centrifugation, and the cell pellet was washed 2 times with PBS for later use. The expanded human T cells were washed 2 times with PBS for later use. After counting the cells in the previous step, the cell pellet was resuspended with [PBS+2% (w/w) BSA] blocking solution to 4×10⁶ cells/ml, and added to a 96-well FACS reaction plate at 50 μl/well, and then the chimeric antibody to be tested was added at 50 μl/well, and incubated at 4° C. for 1 h. The cells were centrifuged and washed 3 times with a PBS buffer. […] The cells were centrifuged and washed 5 times with PBS, and FACS (FACS Canto™, purchased from BD Company) was used for detection and result analysis. Data analysis was performed by software (CellQuest) to obtain the mean fluorescence […] (MFI) of the cells. And then software (GraphPad Prism8) was used for analysis, data fitting, and EC50 value calculation. The same method was used to simultaneously detect the binding of the chimeric antibodies to endogenous CD3 negative cells MOLT4 cells.
FACS detection and data analysis were performed on the cryopreserved monkey T cells of Example 2.4 according to the method in Example 5.1.

[3] = biological target: T3, human CD3 on the cell surface (Jurkat cells, expanded human T cells, Jurkat-Lucia NFAT cells, human PBMC) (human, UniProt P07766 23-207; P04234 22-171; P09693 23-182); experiment: FACS, expanded human T cells
T3 construct: whole, on cells; Endogenous CD3 within the TCR-CD3 complex on cells (also zeta chains and TCR); the cell type is named under assay
T3 sequence (P07766 23-207, chain 1 of 3): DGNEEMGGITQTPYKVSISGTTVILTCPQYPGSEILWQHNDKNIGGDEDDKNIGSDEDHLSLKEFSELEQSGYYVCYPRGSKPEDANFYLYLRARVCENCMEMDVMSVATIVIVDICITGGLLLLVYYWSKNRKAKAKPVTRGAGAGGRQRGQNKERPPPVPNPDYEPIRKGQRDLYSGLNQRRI
T3 sequence (P04234 22-171, chain 2 of 3): as the sequence (Q95LI8 22-171, chain 2 of 2) above, with V5I, K15N, V20I, T32S, N33D, N34I, A64T, N74S, L83V, R141H counted along it
T3 sequence (P09693 23-182, chain 3 of 3): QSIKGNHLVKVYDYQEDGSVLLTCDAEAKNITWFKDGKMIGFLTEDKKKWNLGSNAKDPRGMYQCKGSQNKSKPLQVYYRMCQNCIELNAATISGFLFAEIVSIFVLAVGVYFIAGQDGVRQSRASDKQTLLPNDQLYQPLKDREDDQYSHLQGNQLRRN
Description: as §1

[4] = biological target: T3, human CD3 on the cell surface (Jurkat …); experiment: FACS, Jurkat cells
Description: as §1

[5] = biological target: T3, human CD3 on the cell surface (Jurkat …); experiment: cell-based or functional assay

T1 sequence (P07766 23-126): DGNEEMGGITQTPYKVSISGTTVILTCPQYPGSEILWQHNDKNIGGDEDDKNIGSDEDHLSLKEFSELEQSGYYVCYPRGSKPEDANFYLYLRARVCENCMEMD

Kd [1]: 5.51 nM
koff [1]: 0.000699 s⁻¹
kon [1]: 127000 M⁻¹ s⁻¹
EC50 [2]: 5.51 nM
MFI_Max [2]: 43600 MFI
EC50 [3]: 18.1 nM
MFI_Max [3]: 15100 MFI
EC50 [4]: 4.28 nM
MFI_Max [4]: 2080 MFI
EC50 (nM), luciferase reporter, Jurkat-Lucia NFAT cells [5]: 11.6 nM
Maximum response value (RLU) [5]: 31700 RLU
B1: 1-22.6 human-murine chimeric antibody (antibody, human IgG1, kappa, V domains shown)
VH: QIPLVQSGPELKKPGETVKISCKTSGYTFTSYGMSWVKQAPGKGLKWMGWINTYSGVPTYADDFKGRFVFSLDTSASTAFLQINNLKNEDTATYFCARLKNNPFCWGQGSTLTVFS
VL: DVLMTQSPLSLPVRLGDQASISCRSSQLILHSNGNTYLEWYLQKPGQSPKLLIYKVSNRFSGVPDRFSGSGSGTDFTLKISRVEAEDLGVYYCFQGSHFPWTFGGGTKLEIKR

From patent publication US20250136687A1 (SHANDONG SIMCERE BIOPHARMACEUTICAL, published 2025)
